Measurements as given in PMC5505021.

Target: heat shock protein 90β (African green monkey (endogenous in Vero))
Assay: flow cytometry on cells

“Japanese encephalitis virus strain SA14, purified viral particles (complex)” gave a percentage of HSP90β-JEV binding by FCM (0 μg/ml anti-HSP90β mAb) of 76.2%, a percentage of HSP90β-JEV binding by FCM (with 20 μg/ml anti-HSP90β mAb) of 19.1% and a percentage of HSP90β-JEV binding by FCM (with 100 μg/ml anti-HSP90β mAb) of 10.4%.
